The experiment deals with hMSSCs. The experiment is described as follows: Differentiation tendency of MSSC medium vs. CM medium. The experiment is classed as cell-based, human. The conditions noted are these: as compared when the CM medium was used. As for the experimental part:
The differentiation capacity of a medium (hereinafter, “CM medium”) obtained by replacing the human noggin (Life Technologies), i.e., the constitutional ingredient 1) of the seven constitutional ingredients of the MSSC medium of Example 2, with a conditioned medium (a culture supernatant obtained after culturing CF1 cells with a medium obtained by replacing DMEM/F12 in a complete medium with knockout DMEM (supplemented with 20% knockout serum replacement (Invitrogen, USA), 1 mM glutamine, 1% nonessential amino acids (Invitrogen, USA), 0.1 mM β-mercaptoethanol, 0.1% penicillin-streptomycin and 5 mg/mL bovine serum albumin)) (the remaining constitutional ingredients 2)-7) are identical) was compared with that of the MSSC medium.
Noggin is generally used to maintain the characteristics of hESCs during culturing (Chaturvedi G, Simone P D, Ain R, Soares M J, Wolfe M W. Noggin maintains pluripotency of human embryonic stem cells grown on Matrigel. Cell Prolif. 2009 August; 42(4): 425-33).

B1: noggin: human noggin, constitutional ingredient 1) of the MSSC medium, 250 ng/mL (protein, UniProt Q13253 28-232, looked up)
Noggin: QHYLHIRPAPSDNLPLVDLIEHPDPIFDPKEKDLNETLLRSLLGGHYDPGFMATSPPEDRPGGGGGAAGGAEDLAELDQLLRQRPSGAMPSEIKGLEFSEGLAQGKKQRLSKKLRRKLQMWLWSQTFCPVLYAWNDLGSRFWPRYVKVGSCFSKRSCSVPEGMVCKPSKSVHLTVLRWRCQRRGGQRCGWIPIQYPIISECKCSC
Regarding B1, the “increase of tendency for osteogenic differentiation” value is recorded as at least 10 times.
